Target: recombinant human calmodulin (human), P0DP23
Test: ITC
Conditions: remark: other sources report otherwise

- Kd: 1680 nM
- dH: -7.3 kcal/mol
- stoichiometry N: 0.99 sites
B1: CaMBP1 peptide of zebrafish STRA6 (peptide)
peptide: Ac-SQSHPVMKAFCGLLLQSS-NH2
